{"source": "paper PMC2908525", "about": "(Molecular cell, 2010)", "biological_target": "the molecule itself", "test": "single-molecule TIRF microscopy of DNA looping"}
{"protein": "enhanced green fluorescent protein-MuB fusion (EGFP-MuB) (natural protein, bacteriophage Mu, UniProt P03763 1-312, looked up) MNISDIRAGLRTLVENEETTFKQIALESGLSTGTISSFINDKYNGDNERVSQMLQRWLEKYHAVAELPEPPRFVETQTVKQIWTSMRFASLTESIAVVCGNPGVGKTEAAREYRRTNNNVWMITITPSCASVLECLTELAFELGMNDAPRRKGPLSRALRRRLEGTQGLVIIDEADHLGAEVLEELRLLQESTRIGLVLMGNHRVYSNMTGGNRTVEFARLFSRIAKRTAINKTKKADVKAIADAWQINGEKELELLQQIAQKPGALRILNHSLRLAAMTAHGKGERVNEDYLRQAFRELDLDVDISTLLRN", "values": [{"measurement": "binding result", "result": "binds"}]}
